This is an account of results in patent US20250296971A1, “GASTRIC INHIBITORY PEPTIDE RECEPTOR LIGANDS” (priority 2021, published 2025).

*1 amine or outer side, *2 acyl side, *3 side chain or, on linkers, in order; H or OH if unused. Bridges are numbered along the chain shown (N, C = ends). [ ]: non-standard residue; d: D form. The star is where a group is joined. dE(AGLU) = D-glutamic acid bearing 1-amino-1-deoxy-D-glucitol; Pro(trans-4-NH2) = O=C([C@@H]1C[C@@H](N[*:3])CN1[*:1])[*:2]; DO3AM = NC(=O)CN1CCN(CC(N)=O)CCN(CC(=O)*)CCN(CC(N)=O)CC1; DOTA = O=C(O)CN1CCN(CC(=O)O)CCN(CC(=O)*)CCN(CC(=O)O)CC1; Trp(5-Cl) = N[C@@H](Cc1c[nH]c2ccc(Cl)cc12)C(=O)O; Pyridine(2,6-diCH2) = c1cc(C[*:1])nc(C[*:2])c1; Trp(5-F) = N[C@@H](Cc1c[nH]c2ccc(F)cc12)C(=O)O; APAc = 4-amino-1-carboxymethylpiperidine; Glutaryl = O=C(CCCC(=O)[*:2])[*:1]; AGLU = 1-amino-1-deoxy-D-glucitol; mli = maleimide bridging scaffold; Hyp = O=C(O)[C@@H]1C[C@@H](O)CN1; Tle = CC(C)(C)[C@H](N)C(=O)O; αMeK = C[C@](N)(CCCCN)C(=O)O; Api = NC1(C(=O)O)CCNCC1; Thp = NC1(C(=O)O)CCOCC1 Where only a bound is given, the exact number is not on record here.

B1: Ac-Asp-Trp-5Clw-Hyp-Glu-leu-[Cys(2Lut)-Thp-Trp-Ile-Cys]-NH2 (peptide)
peptide: Ac-DW[Trp(5-Cl)][Hyp]E[dL]C[Thp]WIC-NH2
modifications: linker 7-11 via Pyridine(2,6-diCH2)
SMILES: CC[C@H](C)[C@@H]1NC(=O)[C@H](Cc2c[nH]c3ccccc23)NC(=O)C2(CCOCC2)NC(=O)[C@@H](NC(=O)[C@@H](CC(C)C)NC(=O)[C@H](CCC(=O)O)NC(=O)[C@@H]2C[C@@H](O)CN2C(=O)[C@H](Cc2c[nH]c3ccc(Cl)cc23)NC(=O)[C@H](Cc2c[nH]c3ccccc23)NC(=O)[C@H](CC(=O)O)NC(C)=O)CSCc2cccc(n2)CSC[C@@H](C(N)=O)NC1=O
B2: Ac-Asp-Trp-5Clw-Hyp-Glu-leu-[Cys(2Lut)-Thp-Leu-Tle-Cys]-NH2 (peptide)
peptide: Ac-DW[Trp(5-Cl)][Hyp]E[dL]C[Thp]L[Tle]C-NH2
modifications: linker 7-11 via Pyridine(2,6-diCH2)
SMILES: CC(=O)N[C@@H](CC(=O)O)C(=O)N[C@@H](Cc1c[nH]c2ccccc12)C(=O)N[C@@H](Cc1c[nH]c2ccc(Cl)cc12)C(=O)N1C[C@H](O)C[C@H]1C(=O)N[C@@H](CCC(=O)O)C(=O)N[C@H](CC(C)C)C(=O)N[C@H]1CSCc2cccc(n2)CSC[C@@H](C(N)=O)NC(=O)[C@H](C(C)(C)C)NC(=O)[C@H](CC(C)C)NC(=O)C2(CCOCC2)NC1=O
B3: Ac-Asp-Trp-5Clw-Hyp-Glu-leu-[Cys(2Lut)-Thp-Ser-Ile-Cys]-NH2 (peptide)
peptide: Ac-DW[Trp(5-Cl)][Hyp]E[dL]C[Thp]SIC-NH2
modifications: linker 7-11 via Pyridine(2,6-diCH2)
SMILES: CC[C@H](C)[C@@H]1NC(=O)[C@H](CO)NC(=O)C2(CCOCC2)NC(=O)[C@@H](NC(=O)[C@@H](CC(C)C)NC(=O)[C@H](CCC(=O)O)NC(=O)[C@@H]2C[C@@H](O)CN2C(=O)[C@H](Cc2c[nH]c3ccc(Cl)cc23)NC(=O)[C@H](Cc2c[nH]c3ccccc23)NC(=O)[C@H](CC(=O)O)NC(C)=O)CSCc2cccc(n2)CSC[C@@H](C(N)=O)NC1=O
B4: Ac-Asp-Trp-5Clw-Hyp-Glu-leu-[Cys(2Lut)-Thp-Leu-Leu-Cys]-NH2 (peptide)
peptide: Ac-DW[Trp(5-Cl)][Hyp]E[dL]C[Thp]LLC-NH2
modifications: linker 7-11 via Pyridine(2,6-diCH2)
SMILES: CC(=O)N[C@@H](CC(=O)O)C(=O)N[C@@H](Cc1c[nH]c2ccccc12)C(=O)N[C@@H](Cc1c[nH]c2ccc(Cl)cc12)C(=O)N1C[C@H](O)C[C@H]1C(=O)N[C@@H](CCC(=O)O)C(=O)N[C@H](CC(C)C)C(=O)N[C@H]1CSCc2cccc(n2)CSC[C@@H](C(N)=O)NC(=O)[C@H](CC(C)C)NC(=O)[C@H](CC(C)C)NC(=O)C2(CCOCC2)NC1=O

In this test the target is human Gastric Inhibitory Peptide Receptor (GIPR) (human) (UniProt P48546). Kind of test: FACS competition vs biotinylated GIP-057 on CHO-K1-hGIPR cells; category A: pIC50 >8.0.
human Gastric Inhibitory Peptide Receptor (GIPR) (human), sequence (P48546 22-466 limits assumed): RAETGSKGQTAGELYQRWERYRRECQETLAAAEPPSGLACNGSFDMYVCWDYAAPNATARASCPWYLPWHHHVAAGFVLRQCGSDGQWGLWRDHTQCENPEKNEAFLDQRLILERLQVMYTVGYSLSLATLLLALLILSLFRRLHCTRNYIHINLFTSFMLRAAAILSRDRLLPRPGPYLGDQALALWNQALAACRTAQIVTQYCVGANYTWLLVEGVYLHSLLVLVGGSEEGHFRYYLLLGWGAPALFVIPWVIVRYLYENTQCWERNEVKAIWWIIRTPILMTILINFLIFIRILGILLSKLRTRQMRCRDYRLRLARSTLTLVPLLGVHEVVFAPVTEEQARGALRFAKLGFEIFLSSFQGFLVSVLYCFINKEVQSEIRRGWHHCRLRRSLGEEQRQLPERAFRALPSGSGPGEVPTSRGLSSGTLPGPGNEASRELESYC
In the case of Ac-DW[Trp(5-Cl)][Hyp]E[dL]C[Thp]LIC-NH2 (linker 7-11 via mli) [Ac-Asp-Trp-5Clw-Hyp-Glu-leu-[Cys(mli)-Thp-Leu-Ile-Cys]-NH2], the pIC50 is greater than 8 pic50.

In turn, Ac-DW[Trp(5-Cl)][Hyp]V[dL]C[Thp]LIC-NH2 (linker 7-11 via Pyridine(2,6-diCH2)) [Ac-Asp-Trp-5Clw-Hyp-Val-leu-[Cys(2Lut)-Thp-Leu-Ile-Cys]-NH2] displayed a pIC50 greater than 8 pic50.

Regarding B1, the pIC50 was greater than 8 pic50. In the case of {AGLU-Glutaryl}-DW[Trp(5-Cl)][Pro(trans-4-NH2)]E[dL]C[αMeK](DOTA)LIC-{APAc-dE(AGLU)-NH2} (linker 7-11 via Pyridine(2,6-diCH2)) [AGLU-Glutar-Asp-Trp-5Clw-Tap-Glu-leu-[Cys(2Lut)-Amk(DOTA)-Leu-Ile-Cys]-APAc-glu(AGLU)-NH2] it was greater than 8 pic50; in that of B2, greater than 8 pic50; in that of Ac-D[Trp(5-Cl)][Trp(5-Cl)][Hyp]E[dL]C[Thp]LIC-NH2 (linker 7-11 via Pyridine(2,6-diCH2)) [Ac-Asp-5Clw-5Clw-Hyp-Glu-leu-[Cys(2Lut)-Thp-Leu-Ile-Cys]-NH2], greater than 8 pic50. Regarding B3, the pIC50 is greater than 8 pic50. In turn, {AGLU-Glutaryl}-DW[Trp(5-Cl)][Pro(trans-4-NH2)]E[dL]C[Api](DO3AM)LIC-{APAc-dE(AGLU)-NH2} (linker 7-11 via Pyridine(2,6-diCH2)) [AGLU-Glutar-Asp-Trp-5Clw-Tap-Glu-leu-[Cys(2Lut)-Apc(DOTAM)-Leu-Ile-Cys]-APAc-glu(AGLU)-NH2] registered a pIC50 greater than 8 pic50. The molecule Ac-DW[Trp(5-Cl)][Hyp]S[dL]C[Thp]LIC-NH2 (linker 7-11 via Pyridine(2,6-diCH2)) [Ac-Asp-Trp-5Clw-Hyp-Ser-leu-[Cys(2Lut)-Thp-Leu-Ile-Cys]-NH2] had a pIC50 greater than 8 pic50.

On to Ac-D[Trp(5-F)][Trp(5-Cl)][Hyp]E[dL]C[Thp]LIC-NH2 (linker 7-11 via Pyridine(2,6-diCH2)) [Ac-Asp-5Fw-5Clw-Hyp-Glu-leu-[Cys(2Lut)-Thp-Leu-Ile-Cys]-NH2], for which the pIC50 is greater than 8 pic50.

As to B4, the pIC50 is greater than 8 pic50.
